Columns and labels:
[1] = target: fluorescently-labeled peptides with N-terminal phospho-tyrosine, tyrosine or phospho-serine (Homo sapiens, UniProt P06241, C239S/C240S/C246S/K204L/S186A/T181V); assay: Single-molecule recognition of post-translationally modified amino acids by immobilized SH2 domain variant
[2] = system: amino acid at a terminal position of a polypeptide; settings: amino acid identity at a terminal position of a polypeptide; phospho-Y also at an internal position; cited from earlier work
[3] = system: N-terminal amino acid of peptides; assay: Single-molecule terminal amino acid discrimination by labeled affinity reagent (dwell time analysis); format: binding; settings: for Terminal amino acid recognition: single molecule traces, dwell time analysis
Protocol: An adaptor protein involved in proteolytic pathways was identified as a potential candidate for use as a labeled affinity reagent for detecting N-terminal aromatic residues. The adaptor protein, ClpS2 from an α-proteobacterium (A. tumefaciens), was expressed and labeled at an exposed cysteine residue. […] The exposed cysteine residue was labeled with a rhodamine dye (ATTO 532).
Peptides having different N-terminal aromatic residues were prepared to test whether the labeled ClpS2 was capable of N-terminal amino acid discrimination at the single molecule level.
FIG. 19C is a plot showing discriminant pulse durations (time duration of signal peaks) among the three N-terminal residues when reversibly bound by labeled ClpS2. FIG. 19D is a plot showing discriminant interpulse durations (time duration between signal pulses) among the three N-terminal residues. […] Mean pulse duration for the different N-terminal residues is visualized by histograms (A)-(B) and layered histogram (C).

[4] = system: immobilized peptide FYPLPWPDDDY with N-terminal phenylalanine; assay: Simultaneous single-molecule recognition with differentially labeled recognition molecules; format: binding; settings: 500 nM each binder
Protocol: Single peptide molecules containing N-terminal phenylalanine ([…] (SEQ ID NO: 79)) were immobilized in sample wells of a chip. Buffer containing 500 nM each of at ClpS1 (Agrobacterium tumefaciens ClpS1; sequence provided in Table 1) and at ClpS2-V1 (Agrobacterium tumefaciens ClpS2 variant 1; sequence provided in Table 1) was added, where at ClpS1 and at ClpS2-V1 were labeled with Cy3 and Cy3B, respectively. Since the intensity of Cy3B is higher than Cy3, at ClpS2-V1 binding events were readily distinguishable from at ClpS1 binding events.
The pulse duration distributions were distinct for each binder (FIG. 24B) and corresponded to their kinetic profiles as observed in single-binder experiments. Mean pulse duration was 1.3 seconds for at ClpS1 and 1.0 seconds for at ClpS2-V1 (FIG. 24C). Pulse rate was also distinct: 8.1 pulses/min for at ClpS1 and 14.1 pulses/min for at Clp2-V1 (FIG. 24C). Thus, when more than one recognition molecule is included for dynamic recognition of immobilized peptides, the binding characteristics of each recognition molecule (including pulse duration, interpulse duration, and pulse rate) can simultaneously provide information about peptide sequence.

| Molecule | Binding Pref. [2] | Terminal amino acid recognition [3] | other results |
| --- | --- | --- | --- |
| H. sapiens Fyn SH2 domain triple mutant superbinder: amino acid recognition protein, SEQ ID NO: 23 (protein, listed as Homo sapiens) MGAMDSIQAEEWYFGKLGRKDAERQLLSFGNPRGTFLIRESETVKGAYALSIRDWDDMKGDHVKHYLIRKLDNGGYYITTRAQFETLQQLVQHYSERAAGLSSRLVVPSHK | phospho-Y | – | Peptide binding by the immobilized protein ([1]; peptide with N-terminal and penultimate unmodified tyrosines (YY)): not detected; Peptide binding by the immobilized protein ([1]; peptide with N-terminal phospho-serine): not detected; Peptide binding by the immobilized protein ([1]; peptide with N-terminal phospho-tyrosine): detected; Peptide binding by the immobilized protein ([1]; peptide with N-terminal unmodified tyrosine (Y)): not detected |
| GID4: GID4 evaluated as a potential reagent for proline recognition; species not stated at the place (protein, UniProt Q8IVV7 1-300, looked up) Glucose-induced degradation …: MCARGQVGRGTQLRTGRPCSQVPGSRWRPERLLRRQRAGGRPSRPHPARARPGLSLPATLLGSRAAAAVPLPLPPALAPGDPAMPVRTECPPPAGASAASAASLIPPPPINTQQPGVATSLLYSGSKFRGHQKSKGNSYDVEVVLQHVDTGNSYLCGYLKIKGLTEEYPTLTTFFEGEIISKKHPFLTRKWDADEDVDRKHWGKFLAFYQYAKSFNSDDFDYEELKNGDYVFMRWKEQFLVPDHTIKDISGASFAGFYYICFQKSAASIEGYYYHRSSEWYQSLNLTHVPEHSAPIYEFR | – | proline recognition | – |
| Thermosynechococcus elongatus ClpS: amino acid recognition protein, SEQ ID NO: 12 (protein, listed as Thermosynechococcus elongatus) MPQERQQVTRKHYPNYKVIVLNDDFNTFQHVAACLMKYIPNMTSDRAWELTNQVHYEGQAIVWVGPQEQAELYHEQLLRAGLTMAPLEPE | F, W, Y, L | – | Mean pulse duration ([3]; terminal leucine residue of polypeptides): 0.71 s |
| Synechococcus elongatus ClpS2: amino acid recognition protein, SEQ ID NO: 11 (protein, listed as Synechococcus elongatus) MSPQPDESVLSILGVPRPCVKKRSRNDAFVLTVLTCSLQAIAAPATAPGTTTTRVRQPYPHFRVIVLDDDVNTFQHVAECLLKYIPGMTGDRAWDLTNQVHYEGAATVWSGPQEQAELYHEQLRREGLTMAPLEAA | F, W, Y, L, and V, I | leucine recognition | – |
| Agrobacterium tumifaciens ClpS1: amino acid recognition protein, SEQ ID NO: 4 (protein, listed as Agrobacterium tumifaciens) MIAEPICMQGEGDGEDGGTNRGTSVITRVKPKTKRPNLYRVLLLNDDYTPMEFVIHILERFFQKDREAATRIMLHVHQHGVGECGVFTYEVAETKVSQVMDFARQHQHPLQCVMEKK | F, W, Y, L | differentiable recognition of phenylalanine, leucine, tryptophan, and tyrosine | Mean pulse duration [4]: 1.3 s; Pulse rate [4]: 8.1 pulses/min |

— patent publication US12618845B2, “Methods and compositions for protein sequencing” (Quantum-Si Incorporated, priority 2018, dated 2026)
